Laboratory results published in PMC3248800.

Target: αβ T cell receptor A6 (human)
Test: SPR

Row | Substance | Kd [µM] | dH [kcal/mol]
1 | Tel1p-HLA-A2 (A150P) complex (from UniProt P61769 21-119) (peptide-MHC) | 5 | –
2 | Tel1p-HLA-A2 complex (S. cerevisiae Tel1p peptide … presented by wild-type HLA-A*0201) (from UniProt P61769 21-119) (peptide-MHC) | 41 | -3
